Experimental data taken from article PMC5861037.

Target: DosR (Mycobacterium tuberculosis H37Rv) (UniProt P9WMF9)
Test: EMSA
Conditions: 25 mM Tris-HCl pH 8.0, 20 mM KCl, 0.5 mM EDTA, 6 mM MgCl2, 1 mM DTT, 1 ug/mL poly I:C; room temperature, 10 min; 6.5% native Tris-glycine PAGE, silver staining

“TTGATGCCTCCTAATCGATGGAAACGGATGCCTTTGATCCGACCAGCCCATCGTGGCCAGGGCTAGGGACAGAAGTCCCCGAAGCGCGGGCCATTTGTCCGCGCCCGTCGGTGATCCACTTGGGGACCATTGACCCTGTTGTCTGCCA (double strand) [acr promoter fragment]” was tested, and the binding was “binds”.
